From US20240254222A1
Changes are numbered by the printed parent chain.

B1: TPP-30791 (antibody, human IgG1, kappa, V domains shown)
VH: EVQLVESGGGLLQLGGSLRLSCAASGFTFSSYYMSWVRQAPGKGLEWVSTIIKSGGYAYYPDSVKDRFTISRDNSKNTLNLQMNSLRAEDTAVYYCVKGGQGAMDYWGQGTTVTVSS
VL: EIVLTQSPATLSLSPGERATLSCRASQSIGDYLHWYQQKPGQAPRLLIKYASQSISGIPARFSGSGSGTDFTLTISSLEPEDFAVYYCQQGYSFPYTFGGGTKLEIKR
B2: TPP-30790 (antibody, human IgG1, kappa, V domains shown)
VH: B1 VH with L12V, N80Y
VL: B1 VL with K49Y
B3: TPP-30789 (antibody, human IgG1, kappa, V domains shown)
VH: B1 VH with L12V, L14P, T28P, N80Y, N84S, K98R
VL: B1 VL with S76T
B4: TPP-30788 (antibody, human IgG1, kappa, V domains shown)
VH: B1 VH with L12V, L14P, N80Y, N84S, K98R
VL: B1 VL with S76T

Target: Human Semaphorin3G (Abnova) (human) (UniProt Q9NS98)
Sequence (Q9NS98 23-782 limits assumed, form in doubt): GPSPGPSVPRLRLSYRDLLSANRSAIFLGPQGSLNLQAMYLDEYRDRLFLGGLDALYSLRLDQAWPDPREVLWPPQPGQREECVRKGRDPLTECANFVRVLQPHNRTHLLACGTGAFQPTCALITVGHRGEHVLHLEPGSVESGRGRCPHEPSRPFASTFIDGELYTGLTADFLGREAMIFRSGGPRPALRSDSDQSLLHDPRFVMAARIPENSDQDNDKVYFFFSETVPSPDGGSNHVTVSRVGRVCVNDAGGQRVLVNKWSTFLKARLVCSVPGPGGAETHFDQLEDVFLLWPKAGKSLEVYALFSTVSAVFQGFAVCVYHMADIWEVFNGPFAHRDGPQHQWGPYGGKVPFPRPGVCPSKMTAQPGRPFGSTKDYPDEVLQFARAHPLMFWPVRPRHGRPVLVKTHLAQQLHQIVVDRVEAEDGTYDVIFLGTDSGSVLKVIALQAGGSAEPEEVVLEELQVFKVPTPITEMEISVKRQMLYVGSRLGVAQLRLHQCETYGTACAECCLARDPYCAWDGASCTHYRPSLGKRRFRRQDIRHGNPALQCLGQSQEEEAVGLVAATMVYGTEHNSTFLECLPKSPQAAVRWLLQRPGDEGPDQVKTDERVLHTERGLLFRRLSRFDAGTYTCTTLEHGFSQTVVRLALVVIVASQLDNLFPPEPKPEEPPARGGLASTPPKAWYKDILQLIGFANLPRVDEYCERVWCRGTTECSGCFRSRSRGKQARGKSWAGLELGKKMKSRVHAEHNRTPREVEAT
Test: ELISA, coated GST-Sema3G, antibody 0.00015-10 ug/ml

Binder	EC50 [µM]
B1	> 66.7
B2	> 66.7
B3	> 66.7
B4	> 66.7
